US20130184211A1 (NEW YORK UNIVERSITY, published 2013)

Biological target: T1, 1:1 binary complex of the ectodomains of FGFR1c and Klotho (human; murine, UniProt O35082 35-982)
T1 construct: range 35-982; also called FGFR1c-Klotho complex; binary FGFR1c-Klotho complex; not shown: C-terminal FLAG tag
T1 sequence 1: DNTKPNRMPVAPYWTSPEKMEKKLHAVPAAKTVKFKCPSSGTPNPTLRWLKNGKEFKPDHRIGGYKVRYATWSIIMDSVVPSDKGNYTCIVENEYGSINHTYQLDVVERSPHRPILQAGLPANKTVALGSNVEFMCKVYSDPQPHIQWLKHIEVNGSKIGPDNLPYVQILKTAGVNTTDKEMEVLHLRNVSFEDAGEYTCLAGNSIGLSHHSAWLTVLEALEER
T1 sequence 2: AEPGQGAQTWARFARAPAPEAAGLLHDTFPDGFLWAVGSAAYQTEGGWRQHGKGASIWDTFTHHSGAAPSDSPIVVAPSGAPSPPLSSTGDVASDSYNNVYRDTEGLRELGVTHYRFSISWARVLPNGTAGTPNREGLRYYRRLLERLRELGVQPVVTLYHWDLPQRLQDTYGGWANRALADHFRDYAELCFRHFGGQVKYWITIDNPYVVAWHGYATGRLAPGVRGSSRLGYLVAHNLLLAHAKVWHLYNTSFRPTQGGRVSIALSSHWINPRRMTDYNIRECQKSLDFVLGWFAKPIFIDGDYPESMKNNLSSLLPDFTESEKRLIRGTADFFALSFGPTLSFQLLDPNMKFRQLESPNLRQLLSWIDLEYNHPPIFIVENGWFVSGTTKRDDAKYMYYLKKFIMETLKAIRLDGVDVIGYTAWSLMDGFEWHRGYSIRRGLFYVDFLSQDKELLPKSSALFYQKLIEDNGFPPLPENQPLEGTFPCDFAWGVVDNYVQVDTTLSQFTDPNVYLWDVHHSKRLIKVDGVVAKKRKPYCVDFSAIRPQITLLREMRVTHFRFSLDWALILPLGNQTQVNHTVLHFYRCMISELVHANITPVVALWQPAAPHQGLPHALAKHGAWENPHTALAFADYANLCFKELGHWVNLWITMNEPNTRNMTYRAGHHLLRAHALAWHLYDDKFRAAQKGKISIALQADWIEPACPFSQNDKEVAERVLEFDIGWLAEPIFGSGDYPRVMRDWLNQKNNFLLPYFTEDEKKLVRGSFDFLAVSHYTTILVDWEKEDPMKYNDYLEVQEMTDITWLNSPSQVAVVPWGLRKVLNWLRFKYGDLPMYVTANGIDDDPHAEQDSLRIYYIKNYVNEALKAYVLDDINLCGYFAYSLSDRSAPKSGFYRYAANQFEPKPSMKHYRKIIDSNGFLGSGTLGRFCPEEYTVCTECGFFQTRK
Test: SPR competition; FGF23^28-251 immobilized; reference FGF23^28-251 in solution
Source text: To analyze FGF23 binding to the binary FGFR1c-Klotho complex, FGF23²⁸⁻²⁵¹ was coupled to a chip, and increasing concentrations of 1:1 complex of the ectodomains of FGFR1c and Klotho in HBS-EP buffer were passed over the chip. To measure binding of the C-terminal tail of FGF23 to the binary FGFR1c-Klotho complex, FGF23¹⁸⁰⁻²⁵¹ was immobilized on a chip, and increasing concentrations of 1:1 complex of the ectodomains of FGFR1c and Klotho in HBS-EP buffer were passed over the chip. To examine whether the C-terminal tail of FGF23 can compete with full-length FGF23 for binding to the binary FGFR1c-Klotho complex, FGF23²⁸⁻²⁵¹ was immobilized on a chip. Increasing concentrations of FGF23¹⁸⁰⁻²⁵¹ were mixed with a fixed concentration of 1:1 complex of the ectodomains of FGFR1c and Klotho in HBS-EP buffer, and the mixtures were passed over the chip. As a control, competition of FGF23 in solution with immobilized FGF23 for binding to the binary FGFR1c-Klotho complex was studied. Increasing concentrations of FGF23²⁸⁻²⁵¹ were mixed with a fixed concentration of 1:1 complex of the ectodomains of FGFR1c and Klotho in HBS-EP buffer, and the mixtures were passed over the FGF23 chip. […] As a control, competition of FGF23 C-terminal tail peptide in solution with immobilized FGF23 C-terminal tail peptide for binding to the binary FGFR1c-Klotho complex was analyzed. […]

B1: N-terminally hexahistidine-tagged 72-amino acid C-terminal tail of human FGF23 (S180 to I251), FGF23^180-251 (peptide)
peptide: SAEDDSERDPLNVLKPRARMTPAPASCSQELPSAEDNSPMASDPLGVVRGGRVNTHAGGTGPEGCRPFAKFI
notes: Expressed in E. coli; also called FGF23 C-terminal tail peptide; C-terminal tail of FGF23; not shown: N-terminal hexahistidine tag (six His)
- rightward shift of the dose-response curve compared to full-length FGF23: ~3 fold

B2: FGF23 C-terminal region peptide (S180 to S205), FGF23^180-205 (peptide)
peptide: SAEDDSERDPLNVLKPRARMTPAPAS
notes: Made by solid phase synthesis (GenScript)
- rightward shift of the dose-response curve compared to full-length FGF23: ~6 fold
